What all share (experiment): cell_activity
The test system of data set [1] is CCR5 ZFN SBS#8266, wild-type ZC linker (artificial (zinc finger-FokI)). The conditions noted are these: average of 2; ZFN pair.
Data set [2] relates to CCR5 ZFN SBS#8266, L6a linker (artificial (zinc finger-FokI)). The conditions noted are these: average of 2; ZFN pair.
The subject of data set [3] is CCR5 ZFN SBS#8266, L7a linker (artificial (zinc finger-FokI)). To be noted: ZFN pair.
Data set [4] relates to mROSA-targeted ZFN pair, Wt/L7a linkers (artificial (zinc finger-FokI)). The conditions noted are these: Neuro2A; mock 0.4.
In data set [5] the test system is mROSA-targeted ZFN pair, Wt/Wt linkers (artificial (zinc finger-FokI)). To be noted: Neuro2A; mock 0.4; repeats 23.2 and 18.7.
Data set [6] has as its system rat IgM-targeted ZFN pair, ZC linker (artificial (zinc finger-FokI)). The conditions noted are these: rat C6 cells, CEL-I.
The test system of data set [7] is rat IgM-targeted ZFN pair, with L7a linker (artificial (zinc finger-FokI)). To be noted: rat C6 cells, CEL-I.

CCR5 ZFN SBS#8266, wild-type ZC linker (artificial (zinc finger-FokI)), sequence (chain, as listed by the source): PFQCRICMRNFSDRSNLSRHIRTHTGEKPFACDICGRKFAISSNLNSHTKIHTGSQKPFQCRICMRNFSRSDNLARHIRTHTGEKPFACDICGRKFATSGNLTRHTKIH
CCR5 ZFN SBS#8266, L6a linker (artificial (zinc finger-FokI)), sequence (chain, as listed by the source): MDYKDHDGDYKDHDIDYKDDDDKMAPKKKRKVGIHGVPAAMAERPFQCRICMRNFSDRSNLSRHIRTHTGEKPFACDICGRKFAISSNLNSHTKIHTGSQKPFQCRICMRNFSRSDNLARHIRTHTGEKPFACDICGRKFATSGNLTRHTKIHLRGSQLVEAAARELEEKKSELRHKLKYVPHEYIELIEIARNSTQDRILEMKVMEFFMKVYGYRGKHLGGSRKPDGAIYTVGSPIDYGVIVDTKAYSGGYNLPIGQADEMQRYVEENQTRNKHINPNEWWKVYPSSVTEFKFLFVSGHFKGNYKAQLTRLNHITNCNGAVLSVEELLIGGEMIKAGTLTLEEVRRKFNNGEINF

In data set [1], CCR5 ZFN target, 4 bp gap registered an activity of 1.2 % NHEJ.

Turning to CCR5 ZFN target, 5 bp gap, the activity stood at 39.3 % NHEJ in data set [2] and 35 % NHEJ in data set [1].

CCR5 ZFN target, 6 bp gap: the activity is 25.4 % NHEJ in data set [2], 31.8 % NHEJ in data set [3] (average of 2) and 11.1 % NHEJ in data set [1].

For the substance CCR5 ZFN target, 7 bp gap, the activity in data set [2] was 5.1 % NHEJ; in data set [3] (average of 2), 39.6 % NHEJ.

In data set [3] (average of 2 as printed), CCR5 ZFN target, 8 bp gap had an activity of 6.1 % NHEJ.

As for mROSA target, 6 bp gap, the results for the activity in data set [4] and in data set [5] were 7.5 % NHEJ and 22.6 % NHEJ, respectively.

As for rat IgM target, 6 bp gap, the values for the activity in data set [6] and in data set [7] were 1.93 % NHEJ and 2.43 % NHEJ, respectively.

(Values after US20090305419.)
